B1: Runt-related transcription factor 3 (Homo sapiens), Q13761 (parent)
chain: MRIPVDPSTSRRFTPPSPAFPCGGGGGKMGENSGALSAQAAVGPGGRARPEVRSMVDVLADHAGELVRTDSPNFLCSVLPSHWRCNKTLPVAFKVVALGDVPDGTVVTVMAGNDENYSAELRNASAVMKNQVARFNDLRFVGRSGRGKSFTLTITVFTNPTQVATYHRAIKVTVDGPREPRRHRQKLEDQTKPFPDRFGDLERLRMRVTPSTPSPRGSLSTTSHFSSQPQTPIQGTSELNPFSDPRQFDRSFPTLPTLTESRFPDPRMHYPGAMSAAFPYSATPSGTSISSLSVAGMPATSRFHHTYLPPPYPGAPQNQSGPFQANPSPYHLYYGTSSGSYQFSMVAGSSSGGDRSPTRMLASCTSSAASVAAGNLMNPSLGGQSDGVEADGSHSNSPTALSTPGRMDEAVWRPY

Variants of: B1
Conditions: with brd2_human BRD2, P25440

Variant | effect of a mutation on the interaction
K87R;K94R;K129R;K148R;K171R;K186R | disrupting interaction
K94R | disrupting interaction
K94R;K171R | disrupting interaction
K171R | decreasing interaction

From IntAct's records for PubMed 24229708
